Patent US20250163121A1 (AKSTON BIOSCIENCES, published 2025)
Positions count from the first letter of the chain named.

B1: insulin-Fc fusion protein of SEQ ID NO: 31 (SEQ ID NO: 26 with des hinge D and the mutation cNg-NB138-K; canine IgGB Fc fragment SEQ ID NO: 16) (Fc fusion)
chain: FVNQHLCGSDLVEALALVCGERGFFYTDPTGGGPRRGIVEQCCHSICSLYQLENYCNGGGGAGGGGCPKCPAPEMLGGPSVFIFPPKPKDTLLIARTPEVTCVVVDLDPEDPEVQISWFVDGKQMQTAKTQPREEQFKGTYRVVSVLPIGHQDWLKGKQFTCKVNNKALPSPIERTISKARGQAHQPSVYVLPPSREELSKNTVSLTCLIKDFFPPDIDVEWQSNGQQEPESKYRTTPPQLDEDGSYFLYSKLSVDKSRWQRGDTFICAVMHEALHNHYTQESLSHSPG
notes: Non-glycosylated homodimer made in HEK293 cells; 98.1% homodimer; also called cNg-K with des hinge D
B2: insulin-Fc fusion protein of SEQ ID NO: 22 (insulin polypeptide SEQ ID NO: 5, linker SEQ ID NO: 9, canine IgGA Fc fragment SEQ ID NO: 11) (Fc fusion)
chain: FVNQHLCGSDLVEALALVCGERGFFYTDPTGGGPRRGIVEQCCHSICSLYQLENYCNGGGGAGGGGRCTDTPPCPVPEPLGGPSVLIFPPKPKDILRITRTPEVTCVVLDLGREDPEVQISWFVDGKEVHTAKTQSREQQFNGTYRVVSVLPIEHQDWLTGKEFKCRVNHIDLPSPIERTISKARGRAHKPSVYVLPPSPKELSSSDTVSITCLIKDFYPPDIDVEWQSNGQQEPERKHRMTPPQLDEDGSYFLYSKLSVDKSRWQQGDPFTCAVMHETLQNHYTDLSLSHSPG
notes: Disulfide-linked homodimer made in HEK293 cells
B3: insulin-Fc fusion protein of SEQ ID NO: 26 (insulin polypeptide SEQ ID NO: 5, linker SEQ ID NO: 9, canine IgGB Fc fragment SEQ ID NO: 12) (Fc fusion)
chain: FVNQHLCGSDLVEALALVCGERGFFYTDPTGGGPRRGIVEQCCHSICSLYQLENYCNGGGGAGGGGDCPKCPAPEMLGGPSVFIFPPKPKDTLLIARTPEVTCVVVDLDPEDPEVQISWFVDGKQMQTAKTQPREEQFNGTYRVVSVLPIGHQDWLKGKQFTCKVNNKALPSPIERTISKARGQAHQPSVYVLPPSREELSKNTVSLTCLIKDFFPPDIDVEWQSNGQQEPESKYRTTPPQLDEDGSYFLYSKLSVDKSRWQRGDTFICAVMHEALHNHYTQESLSHSPG
notes: Disulfide-linked homodimer made in HEK293 cells; 93% homodimer
B4: insulin-Fc fusion protein of SEQ ID NO: 29 (SEQ ID NO: 26 with the mutation cNg-NB139-S; canine IgGB Fc fragment SEQ ID NO: 15) (Fc fusion)
chain: B3 chain with N139S
notes: Non-glycosylated homodimer made in HEK293 cells; 98.3% homodimer; also called cNg-S

What follows are binders tested against T1, human insulin receptor (on human IM-9 cells) (human, UniProt P06213 28-1382) (assay: competition with biotinylated RHI on human IM-9 cells, flow cytometry, 4 C).
T1 construct: whole, on cells; Endogenous receptor on IM-9 cells; the mature receptor is a processed alpha2-beta2 tetramer from one precursor; also called IR
Method: Biotinylated-RHI was diluted in FACS staining medium to a concentration of 1.25 μg/mL. 40 μL of the serially diluted test compound and 8 μL of 1.25 μg/mL Biotin-RHI were added into each well of a V bottom microtiter plate, mixed by slow vortexing, and placed on ice. 40 μL of an IM-9 cell suspension (8×10^6 cells/mL) was then added to each well by multichannel pipette, mixed again gently and incubated on ice for 30 min to allow competitive binding on the insulin receptor on IM-9 cells. Cells were then washed twice with 275 μL of ice-cold FACS wash buffer (HBSS/2 mM EDTA/0.1% Na-azide+0.5% horse serum) by centrifuging the V-bottom plate at 3000 rpm for 3 min and aspirating the supernatant. Cells were then resuspended in 40 μL of FACS staining medium containing 1:100 diluted Streptavidin-PE (Life Technologies) for 20 min on ice. Cells were then washed once with 275 μL of ice-cold FACS buffer and finally fixed with 3% paraformaldehyde for 10 min at room temp. Cells were then washed once with 275 μL of ice-cold FACS buffer and resuspended in 250 μl of FACS buffer for analysis.
The V-bottom plates containing cells were then analyzed on a Guava 8-HT flow cytometer (Millipore). Biotinylated-RHI binding to insulin receptor was quantitated by the median fluorescence intensity (MFI) of the cells on the FACS FL-2 channel for each concentration of the test compound. Control wells were labeled only with biotinylated-RHI and were used to calculate the percent (%) inhibition resulting from each test compound concentration. The % inhibition by test compounds of biotinylated-RHI binding on IM-9 cells was plotted against log concentrations of the test compound, and the resulting IC50 values were calculated using GraphPad Prism (GraphPad Software, La Jolla, CA) for the test compounds. Lower IC50 values of the test compound therefore indicate greater levels of biotinylated-RHI inhibition at lower concentrations indicating stronger binding of the insulin-Fc fusion protein to the insulin receptor. A control compound, such as unlabeled recombinant human insulin (RHI) was also used as an internal standard to generate an RHI IC50 against which a given compound IC50 could be ratioed (IC50(compound)/IC50(RHI)). Lower IC50 ratios have more similar binding to RHI (stronger binding to insulin receptor), while higher IC50 ratios have weaker binding to the insulin receptor relative to RHI.

T1 sequence (P06213 28-1382): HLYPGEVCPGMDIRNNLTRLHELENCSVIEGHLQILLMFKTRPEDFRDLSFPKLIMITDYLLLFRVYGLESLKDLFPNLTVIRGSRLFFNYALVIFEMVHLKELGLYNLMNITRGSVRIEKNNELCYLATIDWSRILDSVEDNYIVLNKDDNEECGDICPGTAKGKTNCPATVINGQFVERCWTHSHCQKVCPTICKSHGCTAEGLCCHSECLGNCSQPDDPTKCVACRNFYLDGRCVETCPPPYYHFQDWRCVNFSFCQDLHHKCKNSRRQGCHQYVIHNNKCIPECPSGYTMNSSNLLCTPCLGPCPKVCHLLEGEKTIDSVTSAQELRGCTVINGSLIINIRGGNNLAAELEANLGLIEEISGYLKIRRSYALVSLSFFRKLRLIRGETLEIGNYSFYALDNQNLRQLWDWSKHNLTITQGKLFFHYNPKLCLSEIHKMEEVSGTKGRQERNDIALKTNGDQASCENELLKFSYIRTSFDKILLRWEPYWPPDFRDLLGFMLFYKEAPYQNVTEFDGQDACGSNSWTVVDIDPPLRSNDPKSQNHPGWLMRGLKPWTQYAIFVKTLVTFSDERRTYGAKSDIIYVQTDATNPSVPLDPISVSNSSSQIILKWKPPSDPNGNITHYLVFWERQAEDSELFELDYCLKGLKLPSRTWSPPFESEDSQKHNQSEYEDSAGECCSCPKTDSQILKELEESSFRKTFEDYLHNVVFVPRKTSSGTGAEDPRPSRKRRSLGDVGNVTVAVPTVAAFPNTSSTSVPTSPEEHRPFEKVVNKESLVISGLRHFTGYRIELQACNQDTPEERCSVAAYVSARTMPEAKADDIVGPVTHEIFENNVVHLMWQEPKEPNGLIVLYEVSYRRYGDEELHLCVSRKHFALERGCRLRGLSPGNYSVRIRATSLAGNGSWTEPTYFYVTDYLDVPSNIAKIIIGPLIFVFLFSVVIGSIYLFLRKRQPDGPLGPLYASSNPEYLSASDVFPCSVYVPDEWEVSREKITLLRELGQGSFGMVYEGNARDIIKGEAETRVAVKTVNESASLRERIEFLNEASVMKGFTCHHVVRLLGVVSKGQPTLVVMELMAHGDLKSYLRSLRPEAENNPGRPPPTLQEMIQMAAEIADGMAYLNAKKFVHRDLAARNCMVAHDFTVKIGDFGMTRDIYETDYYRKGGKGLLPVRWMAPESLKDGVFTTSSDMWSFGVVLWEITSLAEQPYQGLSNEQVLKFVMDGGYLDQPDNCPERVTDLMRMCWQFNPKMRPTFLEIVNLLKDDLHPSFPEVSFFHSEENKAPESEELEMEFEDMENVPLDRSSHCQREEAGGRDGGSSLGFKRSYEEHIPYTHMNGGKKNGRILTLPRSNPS

| IC50 | Binder |
| --- | --- |
| 147 nM | B1 |
| 2730 nM | B2 |
| 28 nM | B3 |
| 145 nM | B4 |
